Laboratory results published in paper doi:10.1101/2024.03.29.587371 (bioRxiv, 2024).
One block for each binder: values may come before it. No end group written: not given here. SUMO = small ubiquitin-like modifier

Experiments:
dansylated CaM7 = dansylated CaM7 (Arabidopsis thaliana, UniProt P59220 1-149, dansyl (labelled with dansyl chloride; sites not stated)); experiment: other fluorescence titration
SEC = target: the molecule itself; experiment: SEC

Kd (dansylated CaM7): 290 ± 130 nM
B1: SUMO-AtFBA5 CaMBD (residues 194-213) (domain or fragment)
chain: {SUMO}-IKKCAAVTETVLAAVYKALN
modifications: not fully specified

B2: SUMO-AtFBA4 (Arabidopsis fructose bisphosphate aldolase 4 with N-terminal His-SUMO tag) (enzyme, Arabidopsis thaliana, UniProt F4KGQ0 1-393, looked up)
chain: MSCFKSKFAGKSYFRRTFHSSIIQFHPQLSILIWHRRYSIIRTYELIANAAYIGTPGKGILAADESTGTIGKRFVSINVENVESNRRALRELLFTTPGALQYISGIILFEETLYQKTASGKLFVDVMKEAGVLPGIKVDKGTVELAGTNGETTTTGLDGLGDRCKKYYEAGARFAKWRAVLKIGNNEPSELAIHENAYGLARYAVICQENGLVPIVEPEILVDGSHDIEKCAYVTERVLAACYKALSDHHVILEGTLLKPNMVTPGSDSGSKVKPEVIAKHTVRALQRTVPAAVPAVVFLSGGQSEEEATVNLNAINQLKGKKPWSLTFSYGRALQQSTLKAWGGKEENVDKAQKAFLARAKANSEATLGGYKGDAQLGEGASESLHVKDYKY
stoichiometry N (SEC): 4

Kd (dansylated CaM7): 190 nM
B3: SUMO-AtFBA5 (Arabidopsis fructose bisphosphate aldolase 5 with N-terminal His-SUMO tag) (enzyme, Arabidopsis thaliana, UniProt O65581 1-358, looked up)
chain: MSAFVGKYADELIKTAKYIATPGKGILAADESTGTIGKRFASINVENIESNRQALRELLFTSPGTFPCLSGVILFEETLYQKTTDGKPFVELLMENGVIPGIKVDKGVVDLAGTNGETTTQGLDSLGARCQEYYKAGARFAKWRAVLKIGATEPSELSIQENAKGLARYAIICQENGLVPIVEPEVLTDGSHDIKKCAAVTETVLAAVYKALNDHHVLLEGTLLKPNMVTPGSDSPKVAPEVIAEYTVTALRRTVPPAVPGIVFLSGGQSEEEATLNLNAMNKLDVLKPWTLTFSFGRALQQSTLKAWAGKTENVAKAQATFLTRCKGNSDATLGKYTGGASGDSAASESLYEEGYKY
stoichiometry N (SEC): 4
